Key:
[1] = biological target: scCSGal-1–6H M120L Q142AzK-ss-bio (human); experiment: BLI; Octet RED96e; streptavidin tips loaded with 60 ug/mL biotinylated scCSGal-1 protein; vWF at 25 ug/mL as analyte; association 600 s, dissociation 150 s; PBS with 0.05% Tween 20 and 0.1% BSA, pH 7.4; 25 °C, 1000 rpm; read-out Rt = response at 600 s
[2] = biological target: scCSGal-1–6H M120L R141AzK-ss-bio (human); experiment: as above

In the case of “von Willebrand factor (from UniProt P04275 764-2813) (natural protein)”, the Rt (specific BLI response at 600 s) [1] is reported as 0.14 nm and the Rt (specific BLI response at 600 s) [2] is reported as 0.32 nm.
